system: Escherichia coli TOP10; experiment: shrunken log2 fold change of peptide-encoding DNA abundance (4.5 h post-induction vs induction); higher = less antimicrobial activity (less host growth inhibition); conditions: time post-induction: 4.5 h; library: site-saturation at positions 5, 18, 19, 20
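Further: peptides expressed intracellularly from a pBAD plasmid library in pooled LB shake-flask culture, induced with 0.3% L-arabinose, DNA abundance read by NGS, three biological replicates, DESeq2 with apeglm shrinkage.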

Sequence	shrunken log2 fold change
RRIRTRPPRLPRPRPRPHGCPRP	0.14
RRIRMRPPRLPRPRPRPYLKPRP	-0.00107
RRIRARPPRLPRPRPRPKYQPRP	-0.112
RRIRWRPPRLPRPRPRPGWAPRP	0.845
RRIRTRPPRLPRPRPRPGDIPRP	-0.119
RRIRERPPRLPRPRPRPLGPPRP	0.099
RRIRFRPPRLPRPRPRPIHVPRP	-0.335
RRIRMRPPRLPRPRPRPATQPRP	1.14
RRIRQRPPRLPRPRPRPFHYPRP	-0.996
RRIRDRPPRLPRPRPRPHCIPRP	-0.00742
RRIRVRPPRLPRPRPRPWRAPRP	0.414
RRIRMRPPRLPRPRPRPPHLPRP	0.389
RRIRLRPPRLPRPRPRPHGLPRP	0.123
RRIRRRPPRLPRPRPRPNLLPRP	-0.00833
RRIRVRPPRLPRPRPRPWSHPRP	-0.125
RRIRGRPPRLPRPRPRPFRKPRP	-0.0984
RRIRARPPRLPRPRPRPNGTPRP	0.021
RRIRHRPPRLPRPRPRPPESPRP	0.211
RRIRHRPPRLPRPRPRPADMPRP	0.0208
RRIRFRPPRLPRPRPRPRDDPRP	0.133

Sequence	shrunken log2 fold change
RRIRDRPPRLPRPRPRPHLMPRP	-0.283
RRIRGRPPRLPRPRPRPWRQPRP	0.0568
RRIRLRPPRLPRPRPRPLWDPRP	0.466
RRIRERPPRLPRPRPRPPQNPRP	0.232
RRIRTRPPRLPRPRPRPGTAPRP	0.166
RRIRHRPPRLPRPRPRPLAQPRP	0.00325
RRIRQRPPRLPRPRPRPKSDPRP	-0.2
RRIRFRPPRLPRPRPRPWVNPRP	-0.753
RRIRYRPPRLPRPRPRPWIVPRP	-0.219
RRIRHRPPRLPRPRPRPKHTPRP	-0.104
RRIRVRPPRLPRPRPRPTQKPRP	0.837
RRIRKRPPRLPRPRPRPKVQPRP	0.092
RRIRVRPPRLPRPRPRPNFVPRP	-0.491
RRIRERPPRLPRPRPRPWAAPRP	-0.101
RRIRFRPPRLPRPRPRPWASPRP	-0.0247
RRIRPRPPRLPRPRPRPTSEPRP	0.0181
RRIRLRPPRLPRPRPRPQIKPRP	-0.187
RRIRGRPPRLPRPRPRPTNSPRP	0.319
RRIRFRPPRLPRPRPRPKFHPRP	-0.42
RRIRHRPPRLPRPRPRPRTAPRP	0.264

Sequence	shrunken log2 fold change
RRIRPRPPRLPRPRPRPTRYPRP	0.23
RRIRRRPPRLPRPRPRPHDCPRP	0.00386
RRIRHRPPRLPRPRPRPEHTPRP	-0.328
RRIRCRPPRLPRPRPRPDFCPRP	-0.228
RRIRFRPPRLPRPRPRPRYNPRP	-0.323
RRIRHRPPRLPRPRPRPSPLPRP	-0.223
RRIRGRPPRLPRPRPRPACAPRP	1.13
RRIRRRPPRLPRPRPRPKMQPRP	0.336
RRIRLRPPRLPRPRPRPTYAPRP	-0.167
RRIRPRPPRLPRPRPRPNANPRP	0.0132
RRIRGRPPRLPRPRPRPYFRPRP	0.0786
RRIRHRPPRLPRPRPRPRMTPRP	0.19
RRIRERPPRLPRPRPRPGHLPRP	-0.0138
RRIRQRPPRLPRPRPRPYELPRP	-0.695
RRIRWRPPRLPRPRPRPMASPRP	0.659
RRIRYRPPRLPRPRPRPHCVPRP	-0.0324
RRIRGRPPRLPRPRPRPMQNPRP	0.873
RRIRVRPPRLPRPRPRPNKKPRP	-0.0801
RRIRKRPPRLPRPRPRPAGFPRP	0.0388
RRIRMRPPRLPRPRPRPMTIPRP	-0.329
